Measured values: patent US20180037651A1 (Janssen / Centocor, published 2018)

Target: T1, human GPRC5D (human, UniProt Q9NZD1 1-345)
T1 construct: on transfected HEK293/RBL cells or endogenous on myeloma cells (H929, MM1R, OPM2, LP1, JIM3, patient plasma cells); also called G protein-coupled receptor class C group 5 member D; hGPRC5D
Test: FACS, GPRC5D+ MM1.R cells
Method: The binding affinities of the GPRC5D antibodies on GPRC5D⁺ human MM cell line (MM1.R, purchased from ATCC (American Type Culture Collection)) were measured using FACS.
Binding is expressed as normalized geometrical mean fluorescence intensity as determined by FACS. Graphing and fitting of data were done in GraphPad Prism 6 using nonlinear regression with variable slope (four parameters) and least square fit method.

T1 sequence (Q9NZD1 whole entry): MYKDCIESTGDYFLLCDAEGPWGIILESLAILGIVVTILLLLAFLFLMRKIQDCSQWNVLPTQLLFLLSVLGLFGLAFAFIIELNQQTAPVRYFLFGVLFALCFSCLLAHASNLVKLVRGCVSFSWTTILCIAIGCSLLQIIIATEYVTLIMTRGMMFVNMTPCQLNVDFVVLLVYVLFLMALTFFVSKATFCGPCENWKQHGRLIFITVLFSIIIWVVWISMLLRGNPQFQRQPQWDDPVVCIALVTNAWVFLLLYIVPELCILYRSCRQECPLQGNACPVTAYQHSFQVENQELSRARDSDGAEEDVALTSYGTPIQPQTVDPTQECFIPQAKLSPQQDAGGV

B1: GC5B602 (antibody, IgG1, V domains shown)
VH: QVQLVQSGAEVKKPGASVKVSCKASGYSFTGYTMNWVRQAPGQGLEWMGLINPYNGDTNYAQKLQGRVTMTTDTSTSTAYMELRSLRSDDTAVYYCARVALRVALDYWGQGTLVTVSS
VL: DIQMTQSPSSLSASVGDRVTITCKASQNVATHVGWYQQKPGKAPKRLIYSASYRYSGVPSRFSGSGSGTEFTLTISNLQPEDFATYYCQQYNRYPYTFGQGTKLEIK
notes: IgG1 form of GC5B515
EC50: 135 nM
